Measurements from article PMC5855711.

What was measured:
Conditions in all cases: remark: other sources report otherwise
[1] = biological target: T1, human recombinant HSP60 (without mitochondrial signal sequence) (human), P10809; test: transmission electron microscopy (uranyl acetate stain); no nucleotide; HSP60 0.1 μM alone or with HSP10 0.2 μM, or GroEL 0.1 μM with GroES 0.2 μM, buffer D (10 mM MgCl2, 20 mM KCl, 1 mM DTT, 50 mM HEPES-KOH pH 7.4), 25 °C, 10 min
[2] = biological target: T1, human recombinant HSP60 (without …); test: SEC; Superdex 200 10/300 GL, 0.41 μM HSP60 or GroEL, 0.1 M NaCl, 5% glycerol, 50 mM HEPES-KOH pH 7.4, no nucleotide; size from a calibration curve
[3] = biological target: T1, human recombinant HSP60 (without …); test: small angle X-ray scattering (SAXS); 1 mM ATP; 3.0 mg/mL HSP60 or GroEL with various concentrations of co-chaperone, buffer D, 25 °C; self-association: single ring (7) to double ring (14)
[4] = biological target: T1, human recombinant HSP60 (without …); test: transmission electron microscopy (uranyl acetate stain); 1 mM ADP; HSP60 0.1 μM alone or with HSP10 0.2 μM, buffer D, 25 °C, 10 min
[5] = biological target: T1, human recombinant HSP60 (without …); test: transmission electron microscopy (uranyl acetate stain); 1 mM ATP; HSP60 (wild type or D398A) 0.1 μM alone or with HSP10 0.2 μM, or GroEL 0.1 μM with GroES 0.2 μM, buffer D, 25 °C, 10 min; more than 500 side views counted, three experiments; self-association: single ring (7) to double ring (14)

stoichiometry N [1]: 7 | stoichiometry N [2]: 7.3 subunits | fraction of double-ring HSP60 (curve fitting, HSP60+ATP) [3]: 0.14 | fraction of single-ring HSP60 (curve fitting, HSP60+ATP) [3]: 0.86 | fraction of single-ring HSP60 without HSP10 (curve fitting, HSP10 and ATP present) [3]: 0.09 | percent of HSP60 in double rings (from I(0)/C, ATP, no HSP10) [3]: 50% | stoichiometry N [4]: 7 | percent of HSP60-containing complexes with the double-ring structure (with HSP10 and ATP) [5]: 80% | percent of HSP60 in double rings, football-type and bullet-type (with HSP10 and ATP) [5]: 70% | percent of side views that are HSP60 (7), single ring alone (with HSP10 and ATP) [5]: 10% | percent of side views that are HSP60 (14), double ring alone (with HSP10 and ATP) [5]: 2%
B1: human recombinant HSP60 (without mitochondrial signal sequence), P10809 27-573 (natural protein)
chain: AKDVKFGADARALMLQGVDLLADAVAVTMGPKGRTVIIEQSWGSPKVTKDGVTVAKSIDLKDKYKNIGAKLVQDVANNTNEEAGDGTTTATVLARSIAKEGFEKISKGANPVEIRRGVMLAVDAVIAELKKQSKPVTTPEEIAQVATISANGDKEIGNIISDAMKKVGRKGVITVKDGKTLNDELEIIEGMKFDRGYISPYFINTSKGQKCEFQDAYVLLSEKKISSIQSIVPALEIANAHRKPLVIIAEDVDGEALSTLVLNRLKVGLQVVAVKAPGFGDNRKNQLKDMAIATGGAVFGEEGLTLNLEDVQPHDLGKVGEVIVTKDDAMLLKGKGDKAQIEKRIQEIIEQLDVTTSEYEKEKLNERLAKLSDGVAVLKVGGTSDVEVNEKKDRVTDALNATRAAVEEGIVLGGGCALLRCIPALDSLTPANEDQKIGIEIIKRTLKIPAMTIAKNAGVEGSLIVEKIMQSSSEVGYDAMAGDFVNMVEKGIIDPTKVVRTALLDAAGVASLLTTAEVVVTEIPKEEKDPGMGAMGGMGGGMGGGMF
